Numbering of substitutions follows the chain as printed. Like-named read-outs stand apart in the source and are kept apart here.

Common to all, as to assay: EMSA
The target of data set [1] is T1, SmD1 (1-109);SmD2;SmF;SmE;SmG;Brr1 (Saccharomyces cerevisiae;Saccharomyces …, UniProt Q02260;Q06217;P54999;Q12330;P40204;Q99177 1-109;1-110;1-86;1-94;1-77;1-341, |||||).
The target in data set [2] is T2, SmD1 (1-109);SmD2;SmF;SmE;SmG (Saccharomyces cerevisiae;Saccharomyces …, UniProt Q02260;Q06217;P54999;Q12330;P40204 1-109;1-110;1-86;1-94;1-77, ||||).
Data set [3] has as its target T3, SmD1 (1-109);SmD2;SmF;SmE;SmG;SmD3 (1-88);SmB (1-105) (Saccharomyces cerevisiae;Saccharomyces …, UniProt Q02260;Q06217;P54999;Q12330;P40204;P43321;P40018 …, ||||||).
For data set [4], the target named is SmD1 (1-109);SmD2;SmF;SmE;SmG;Brr1;SmD3 (1-88);SmB (1-105) (Saccharomyces cerevisiae;Saccharomyces …, UniProt Q02260;Q06217;P54999;Q12330;P40204;Q99177;P43321;P40018 …, |||||||).
The target of data set [5] is T1, SmD1 (1-109);SmD2;SmF;SmE;SmG;Brr1. The source holds these as a separate data set.
The target of data set [6] is T3, SmD1 (1-109);SmD2;SmF;SmE;SmG;SmD3 …. The source holds these as a separate data set.
The target is the same in data set [7]. The source holds these as a separate data set.
Data set [8] has as its target T2, SmD1 (1-109);SmD2;SmF;SmE;SmG. This is another data set of the same source.
For data set [9], the target named is T3, SmD1 (1-109);SmD2;SmF;SmE;SmG;SmD3 …. This is another data set of the same source.

B1: Umini-snRNA (structured_RNA)
RNA: GGGAAGUGUUACAGCUCUUUUAGAAUUUUUGGAGUAGGCUUUCUGGCUUUUCACCGGAAAGCCCCU
Consider B1, for which the binding result in data set [1], in data set [2] and in [3] was “binds” each time.

B2: Umini-ΔSm-snRNA (structured_RNA)
RNA: B1 RNA with U26C, U27C, U28C, U29C, U30C
Turning to B2, the binding result in data set [4], in data set [5], in data set [2] and in [6] was “no binding” in each case.

B3: Umini-3'ss (ssRNA)
RNA: GGGAAGUGUUACAGCUCUUUUAGAAUUUUUGGAGUAGGCUUUCUGGCUUUUCAGGCCUUUCGGGGA
On to B3, for which the binding result in [7], in data set [8] and in [5] was “binds” in each case.

B4: U4-snRNA (structured_RNA)
RNA: GGAUCCUUAUGCACGGGAAAUACGCAUAUCAGUGAGGAUUCGUCCGAGAUUGUGUUUUUGCUGGUUGAAAUUUAAUUAUAAACCAGACCGUCUCCUCAUGGUCAAUUCGGUGUUCGCUUUUGAAUACUUCAAGACUAUGUAAAUUUUUGGAAUACCUUU
Consider B4, for which the binding result in data set [5] and in data set [9] was “binds” in each case.

These data come from PMC11965559 (Nature Communications, 2024).
